Data reported in the DeepSol protein solubility set.

assay: soluble on expression in E. coli; label from the status in PepcDB or PDB records

| Sequence | soluble on expression in E. coli |
| --- | --- |
| MGSDKIHHHHHHMLASSDLPYRKMITWAGFYQDYYLVDINTGRKLPLLTQQPSDSDPSLSGDGKFVVYYQQGHVYLYDIAQGRRTNLTQSLKVSFADEDHDYPSNAPGYGFGPWLKDDAGILVYDKFDVWQFNTASKTGFALTAGQGRAQKIQYRLEGLVDNPDEPTTLAYNATVLLHGYSDKTKADGFYQATLGEAGVKTLMEGEYKLTVLGRSKDTDTLVFSKERFDLFPDLYTASYQAPQQAVKQTDLDKQRQAFNWSQAELVHWTNGDGKPLDGVLIKPTNYQAGERYPVLVYYYELMTDRLHAFPQMKVNHRPNFAWYVNNGYALFLPDIRFDIGYPGASSVQTLTSGVQKLIDMGVADANAIGLQGHSWSGYQTAFAITQTKMFKAAVAGAPVANMTSAYNGIRHGTGIARQFQYETGQSRIGASLFAAPQKYIENSPVFYADRIKTPLMIMFGDKDDAVPWEQGVEMYLAMRRAGKDVVFLQYEDEPHHLKKYPNKLDYSIRMMEYFDHYLKGKPAPAWLSQGEAYVEYKADDE | not soluble |
| MGSDKIHHHHHHMLDITMFSKADSVKGQGVGSAYLELMRLLRTHWQDEFNIKVNRYGRSAVSHYHTVNPMFYLSTFMPNRGRKIGYVHFLPETLEGSLKLPRPFQMIFNRYLISFYKRMDHIVVVNPTFIPKLEAYHIKRADVTYIPNFVSKREFYEMTKAKQLRLRQQYGYDQNKFMIIGTGQIQDRKGVPDFITLAKQNPDIQFVWAGGFSFGRITDGYQELKQVVDNPPANLSFPGIVPREKLVDYYNMADLFLLPSYNELFPMSVLEAFSCGTPVLLRDLDLYRAIIDGYYQAASDVDDMQRQIDQLSHNPAGLQFLHDKAVLAAQD | not soluble |
| MGSDKIHHHHHHMLELLEPIAIFTHVARAGSFSAAARRLGISKSKVSTQVADLEHRLGVQLIQRTTRSLSLTEAGHLLYLQGEELLRDAEQAIASVHNLNDATRGVLKVGISQSFGVMHIIPALPSFMAKHPELELQVSLLDHKVDVVSEGLDLLLTMSEQLPLGMVARPLMKCQFLLVASPGYIAQHGEPTRPEQLVDHNCLVYQGEWHEHSMWQFKKGDDYCEIGVSGNFRVDNAPALKSAAISGLGVVYLASYLMEDEITKGTLVPLLKDWQLTHHLPLQAVYPRRKHLAPKVSSFIEFIKDHIGTPPYWDAPYVELFSKRQ | not soluble |
| MGSDKIHHHHHHMLERRDKEITDLKRRVANMVVVGKISHVDHKNARYRVKTGNLVSDWIPDTQARAGKTRSYEGRDVGEQVVVVSSSGDLSQGVIVGSIHTDANQAADKGNLHKTLYPDGTTIEYDDEQNSYALHLTSGGKFSLTISDGVSIKGDGKKLELQAAEGIKIISQGDLSLSAEKNIALKAGGSVSLHSDDGIALHSSEGVSIHSSDLKHNGTNIGNSHVHGGVSPGGSMTGGPN | not soluble |
| MGSDKIHHHHHHMLGFRALAKPGAISMWVPQYSHQTQPVYLMIADALEQDIESGRLAEGDRLPTLKDLAEALNVTPGTVGRAYDEAAKRGLVAGEVGRGTFVRQLRQPLPAPSVPTPVAGESSQIDLSIIKPNDAHMSEWLGTAISELAASSDLGQVLDYVTEGGHTSHKQAGATWIQRWLPDARWQQVVLTAGAQHGLLVAISSLSKSDDVVLCESLCYPGIISLAHSLGRRLRGVAMDEHGLIPEALRAACLEHRPSLLVCVTTHQNPTNSIMPPARRQAIAEIAREFDLFIVDDDIYGFLEPSPDYKPLAAYAPERSVYLTSLSKSVLPALRIGYLYAPPQTLSRLSSMVRSSVWMPSPLMAQLASNLINSGKADQLVRMQQQEAAARQHMAREILGQYKIRSQPHSFHIWLELPEPWTSDEFANLARDNGVTVVSGSQFLPERSHATSGVRIALMAPSRQELGFALTKLASLLDSPEPRLFY | not soluble |
| MGSDKIHHHHHHMLIKLNDYEKNITQKIKDLKNASGSHSPSIFTMAEQIPELNIKIDSCFLSNPYATALFLRYLKEELIDGQKLRSVLEFYPSQNSIIAKTVADFIGIDPKNVFIGNGAIEIIQAVMHNFVGKKIIVNIPTFSSYYEFAKSETNVVYYQLSKEDNYNLNIEHYLNFVKNENPDSVVLINPNNPDGGYINYEKLRYILSELKYVKNIIIDESFIHFAYENKDYNGINIEYLFKEFHNTIIIKSMSKDFGVAGIRIGYAIMSEDKIRGLLKNGYLWNSSGLSEYFLRLYVRKNFFDEYDKVRREYIQETQTFFRKLSGIKQFKVYPSMANFALVELLDGSSSTDFVAKMLIKYGIYMRTCNDKIGLEGEFIRIASRTLEENDMVLKSICDVFKE | not soluble |
| MGSDKIHHHHHHMLINADFSCRAALAPEHYQWVQSPQNGVERVMLDRVGAEKARATSIVRYAPESNFPYHLHPGGEEILVLSGTFSADNSDYPAGWYLRNPPKSGHQPYSNVGAVIFVKLWQMTADETHHVAIDTKDAKNWHRQGNREVCHLFLDTSEQVSLQRIEAGEILFPETIARGAELLVIEGELIEDSMLDKGQSYKKGSWIRLPVDATSPIVAGANGATVYLKTGHLSRIIGIDVY | not soluble |
| MGSDKIHHHHHHMLLPLSSQNVIQHLQAADLCSSEDGKSDIVELPISKKNYNLVVNLADNRKLLVKQERGVENDGILHELFNEWLFHQLLQKFPILGNISAIAPLVVHFDEENSILVRSYLSEYLDLAEFYQNPNVFPKEIAAAIGTTLAALHRTTFQGKEYRDFMATAPQGQFRYHFYNPAQGISSLNPEIFGRIPTEALKFHVLYQCYESLEAAIADLAYEWDACCLTHNDLKLNNILIHSRWNQLDNCLVQLIDWEACTWGDPAFDLGTILASYLEIWLESLVVDPTLELAESLELVMIPLEEIQPSLVALLQAYLQAFPMILEYHPNFLVRVIKFIGLALIHQIQDKINNCKLFDNSHLYMLQVAKNLLTMPEQSILSIFGISEAEILSPVAKVPQVSHPEKEKQLVPLYYEKTRLRGC | not soluble |
| MGSDKIHHHHHHMLLRKDEVFYIDLPRKIEKEEKVKEEKTKENAAEEIQRIEKMREKILSEAQEEARKIIEGARKDAEEILSNASSEAEALKLEAKKVLEEAKTMKNDFQKYILALKEKIQKQVNQRIEEILPELLDILRILFKKILEKEMDESTVERKLRSALSKVVGIKNVKIRINPEDAKKLDLSEVSKETLIPDPNVERGGVIVETDFGILDKTFSHQWELVEDIFEEVVGFEGHPERAEKEVE | not soluble |
| MGSDKIHHHHHHMLLTTRPPSPDSIPCCAGCSMARVCLAGNCDSDGEGPADGLAQRVIRLRKGEPLYLLGDPLAALFAVRVGTVKTHVATEDGRTQVVGFHFPGEVVGLDSIGRRQYASYATALEDTKVCMIPMDVLRPLAACTPALASRVFRALDGYAQRTRALQTLLALMTAEERLVTFLLWISEGLAARGFSSSEFILRMSREEIGSYIGLTLETVSRQFSRLAECGLIRVKHRSVALVDKAGLRAIADRSAISPIPPGTNRRRGGEQRVPAQALRTSAPAWATRTQPATAAMQADNPKINPFAWEAGNGQQ | not soluble |
| MGSDKIHHHHHHMLNETKELLKDYYGIDDDTFKLSQEIMEEIKDKFEEIKEIREYNQYKVLKAMQESKLSDMHFNWTTGYGYNDIGREKIEEIYSKVFNTEDALVRPIIVNGTHALTLCIQGIVRPGDEILSVTGRPYDTLEGVIGIREEKGSLKEYGVTYDDVDFLEDGNLDLEGIKSKINDRTKLVMIQRSKGYSWRKSLSISDIKEAIEVIKSVKPEAIVMVDNCYGEFLDTKEPTDVGADVMAGSLIKNPGGGLALTGGYIAGRKDLIELISYRMTSPGIGKECGLTFGTTRNVLQGFFLAPYIVSQAVMGAIFCSRAFEKLGYDVLPKYDDLRSDIIQCIRLNNADEVISFCEGIQEAAPVDSYVKPVPWDMPGYESEVIMAAGAFIQGSSIELSADAPIRPPYNVYFQGGLTFDHSKMGTLKAIEFIKKLKK | not soluble |
| MGSDKIHHHHHHMLNKVLTHLDENIEKSLERLFSLLRFQSISTDFAYKDECRKAADWLVEDLKSIGFKASRRDTSGHPMVVGHHPGPSDDCLHVLFYGHYDVQPVDPLNLWEDDPFTPSLKEREGEKVICARGASDDKGQLMTFIEACRAFKKETGQLPVRVTVLFEGEEESGSSSLVPFLKANKDELKADCALVCDTSMWDADTPSVSVALRGILGEEIIITAANRDLHSGYFGGAAANPIRILTKVLAGLHDENNRVTLPGFYDGVEETPPHILQSWNALNCTAENFLGPIGLSLPAGEKGRSVLELVWARPTAEINGISGGYEGEGIKTVIASQASAKVSFRLVHKQDPEKIRQAFRDYVCSLIPADCSVVFKEHGASPAIQLPYDSPFIKTAKDALSQEWNNPALLTVMGGSIPIVADFQSILDMETLLVGFALADDRIHSPNEKYNLKSFHKGQRSWARILATLAKTGG | not soluble |
| MGSDKIHHHHHHMLNMDFSRRVVIRTHEQHWVPSPAAGVERKPLAREEAERGHATSVVRYKPGSSFSTHEHPLGEEILVLEGVFSDETGHYPAGTYIRNPPGSSHAPFSEEGCTLLVKLHQFDPRDTATVRIDTNSGHWLPGIGGLQVMPLHEFEHERVALVKWPPNEAFQPHRHFGGEEIFVLSGEFRDEHGRYPAGSWIRSPHMSQHHPFVEQETVIWVKTGHLPVNHSPET | not soluble |
| MGSDKIHHHHHHMLNRVHLNGLRAVETVARLGSLAAAAGELNVSVSAVSQQISRTEKQLGQALFERTASGLVLTEFGAAFATRLGAGFRELAQAVALADEASQCTLVVSVAPAFASKWLLPRLSRHFDRHPNVLLRIDASVRLANLDHSDVDIAIRLGDGEWPGVRAELLLAQEVFPVCAPSIAAKLRSIEDLAQTCAITDERSMISWDSWFKAAGVEPVTFLKGARFTDPMLCLESAIAGHGVMLAWQLLTADALTDGRLVAPFGVRAESGLGYWMVTSATKAESRKVHDFKAWIREEIETTMAQFRTLDSAA | not soluble |
| MGSDKIHHHHHHMLNTKDKQPILLIIFGQKMKEYDDLIRSTVERLSKRDRPVSILISKELNHVIHHYDAQFENLETLVGYINTHEDSLIYPLCLDKNHELFQEFLAWQSHYSRQYISDNLSEKSVQAIDNNQDFVQVDCLVMRDSLNNCLYVSDLEYIESNKTTGKSLAIVPSQTLSDAARQTIRDVAFDVCRKANIIGVCYFSFLIDLNSLDYHIISLSSGLSHQSILFETITTYPVLEIATKLTVGYTFSQLKHSYYPNTSAFLEPQLDYVATVSFSFEKVDYIFFARNIEQLFLNLLEASSHDHFPFLSDISEEDLMFALIQKKENRLAYLLEAFRRGFDLYDLSSVTKINPFYLDKCLHIVELYENLNKSQYNVDIYKEAKRYGFSDDYIASSWQISLIDMLEYRKKHSVAPVLKQVEQSSGVLTGHQIQYFRSYDWHSDYISSGCQKALIMVDKGYSLVKLNELIKQIKQTHLELLIVTNQPLLIEQLNDTSIIFDTIGIETILTIMGIEEVEEVYLLGESQADMFSKMKNFSISCQSI | not soluble |
| MGSDKIHHHHHHMLNWSHLPAIKPKYLAITQFIKQAIQNGDLLPGQRLPAERELATLLHVDRSTVTRALLDLAAVGILVKKRGSGTFVAQLPHVNQLANKVNWQAFLENTTATRHATYQRKLAKARTTATVPLIDAAANELPTNLIPQLGTLTLDWQGFLTAQQQEERTGYLPLMQTINRYHTARQQFTLDRQSLIITGGAQQALLLILNSLLQPGDAVAFVTPSYFSASAVFSAAGVRAYTIPTTTLGLDLTALETAIIKHRIKLLILNPTLQNPTGRILPLAERQAILALCQRYQVAIVEDDVFGWLVDRDIAVPPFKALAPDNVIYISSLSKLLGSNTRIGWIVAPQAIGERIRQVQKNLDLVPSLLAQVMVDHALNSPEFSLGVTQLTTQLAQRRQNVTAILRQLRPDWHFVTPLGGFYLWVTQADRNVFEHLLEQHLLVTPGPIYGADRSAFRFNFAGLDYRQQRLLIQRLS | not soluble |
